Results taken from publication PMC7688924, “α-Galactosidase and Sucrose-Kinase Relationships in a Bi-functional AgaSK Enzyme Produced by the Human Gut Symbiont Ruminococcus gnavus E1” (Frontiers in Microbiology, 2020).

Key:
purified protein = substrate: O=[N+]([O-])c1ccc(O[C@H]2O[C@H](CO)[C@H](O)[C@H](O)[C@H]2O)cc1; assay: purified protein; conditions: McIlvaine's buffer pH 6.0, 42 °C, pNPGal 0.078-10 mM
[1] = substrate: Nc1ncnc2c1ncn2[C@@H]1O[C@H](COP(=O)(O)OP(=O)(O)OP(=O)(O)O)[C@@H](O)[C@H]1O; assay: bioluminescence ATP consumption assay (luciferin/luciferase); type: biochemical, Mediterraneibacter gnavus; conditions: sucrose 5 mM, pH 8.0, 30 °C, ATP 0-10 mM, […] enzyme
Description: bioluminescence ATP consumption assay (luciferin/luciferase) on […]

[2] = substrate: Nc1ncnc2c1ncn2[C@@H]1O[C@H](COP(=O)(O)OP(=O)(O)OP(=O)(O)O)[C@@H](O)[C@H]1O; assay: as above; type: biochemical, Mediterraneibacter gnavus; conditions: sucrose 5 mM, pH 8.0, 30 °C, ATP 0-10 mM, […] enzyme; remark: listed apart in the source
Description: bioluminescence ATP consumption assay (luciferin/luciferase) on RgSK

B1: RgAgaSK (Mediterraneibacter gnavus) (protein)
chain: MAIIYNPNKKIFTLHTAHTTYQMQVDPLGYLLHLYYGEKTNSSMDYVLTYADRGFSGNPYAAGMDRTYSLDALPQEYPSLGTGDYRNIALNIKNEKGVESADLLFKSYEIRNGKYRLQGLPAVWADEKEAQTLEIVLADENAQVEVHLLYGVLEENDVITRSVRIKNTGTGQITIEKAAAACLDFVQGEFDVLRFYGKHAMERNLERTPLGHGTIAFGSRRGTSSHQYNPAVILAEKGTTETAGSCYGMLFVYSGNFSCEAEKDQFNQTRLLLGLNEELFSYPLASGETFTVPEVILSYSAEGLSALSQQYHNCIRNHVCRSKYVHMQRPVLINSWEAAYFDFTGDTIVDLAKEAASLGIDMVVMDDGWFGKRNDDNSSLGDWQVNETKLGGSLAELITRVHEQGMKFGIWIEPEMINEDSDLYRAHPDWAIRIQGKKPVRSRNQLLLDFSRKEVRDCVFDQICVVLDQGKIDYVKWDMNRSMADVYAGNLSYDYVLGVYDFMERLCSRYPDLLLEGCSGGGGRFDAGMLYYSPQIWCSDNTDAINRTRIQYGTSFFYPVSAMGAHVSAVPNHQTGRVTSFHTRGVTAMAGTFGYELNPALLSDEEKQQIREQIKTYKKYETLINEGTYWRLSDPFTDEIAAWMSVSEEQDHALVSVVRLMAEANQATVYVRLRGLKPDAVYLEEQSGRQYSGAALMHAGIPLPPFTEEYEAYQFAFTELKEAGRLYEKVQKWCDGNAENRVVISIYGGSGSGKTTLATALQQYFLNDGTECYLLSGDDYPHRIPKRNDEERMRVYKEAGEDGLRGYLGTKKEIDFDRINEVLAAFHEGKDSITLRHMGREDGEISLEETDFSGISVLLLEWTHGGSDDLHGVDLPVFLESSPGETRERRIRRNRDENAASPFICRVVELEQEKLEVQRKNAGLIVGKDGSVYEQ
notes: full-length bifunctional enzyme (935 residues), produced in E. coli as in Bruel 2011, Ni-NTA and gel filtration, His-tag (C-terminal 6xHis given for recombinant proteins), tetramer
Purified protein
  Km: 1.3 ± 0.2 mM
  Vmax: 0.179 µmol/min
  kcat: 626 s⁻¹
  kcat/Km: 481000 M⁻¹ s⁻¹
[1]
  Km: 8.4 ± 1.9 mM
  Vmax: 0.0983 µmol/min
  kcat: 38.1 ± 4.8 s⁻¹
  kcat/Km: 4530 M⁻¹ s⁻¹

B2: RgSK (Mediterraneibacter gnavus) (protein)
chain: RLYEKVQKWCDGNAENRVVISIYGGSGSGKTTLATALQQYFLNDGTECYLLSGDDYPHRIPKRNDEERMRVYKEAGEDGLRGYLGTKKEIDFDRINEVLAAFHEGKDSITLRHMGREDGEISLEETDFSGISVLLLEWTHGGSDDLHGVDLPVFLESSPGETRERRIRRNRDENAASPFICRVVELEQEKLEVQRKNAGLIVGKDGSVYEQ
notes: isolated C-terminal sucrose kinase domain, Arg-724 to Gln-935, C-terminal His6 tag, E. coli BL21(DE3), pOPINE, 23,898 Da
[2]
  Km: 6.3 ± 1.8 mM
  Vmax: 0.0719 µmol/min
  kcat: 27.9 ± 4.3 s⁻¹
  kcat/Km: 4420 M⁻¹ s⁻¹

B3: RgAga (Mediterraneibacter gnavus) (protein)
chain: AIIYNPNKKIFTLHTAHTTYQMQVDPLGYLLHLYYGEKTNSSMDYVLTYADRGFSGNPYAAGMDRTYSLDALPQEYPSLGTGDYRNIALNIKNEKGVESADLLFKSYEIRNGKYRLQGLPAVWADEKEAQTLEIVLADENAQVEVHLLYGVLEENDVITRSVRIKNTGTGQITIEKAAAACLDFVQGEFDVLRFYGKHAMERNLERTPLGHGTIAFGSRRGTSSHQYNPAVILAEKGTTETAGSCYGMLFVYSGNFSCEAEKDQFNQTRLLLGLNEELFSYPLASGETFTVPEVILSYSAEGLSALSQQYHNCIRNHVCRSKYVHMQRPVLINSWEAAYFDFTGDTIVDLAKEAASLGIDMVVMDDGWFGKRNDDNSSLGDWQVNETKLGGSLAELITRVHEQGMKFGIWIEPEMINEDSDLYRAHPDWAIRIQGKKPVRSRNQLLLDFSRKEVRDCVFDQICVVLDQGKIDYVKWDMNRSMADVYAGNLSYDYVLGVYDFMERLCSRYPDLLLEGCSGGGGRFDAGMLYYSPQIWCSDNTDAINRTRIQYGTSFFYPVSAMGAHVSAVPNHQTGRVTSFHTRGVTAMAGTFGYELNPALLSDEEKQQIREQIKTYKKYETLINEGTYWRLSDPFTDEIAAWMSVSEEQDHALVSVVRLMAEANQATVYVRLRGLKPDAVYLEEQSGRQYSGAALMHAGIPLPPFTEEYEAYQFAFTELK
Purified protein
  Km: 1.2 ± 0.2 mM
  Vmax: 0.236 µmol/min
  kcat: 827 s⁻¹
  kcat/Km: 689000 M⁻¹ s⁻¹
